Reference: the DeepSol protein solubility set

Assay: soluble on expression in E. coli; label from the status in PepcDB or PDB records

Sequence | soluble on expression in E. coli
MASYRVAALYRFTRFEDPAAIQGPLAALCCSLGVKGTLLLAREGINGTIAGEDAAIEAVLAHIRALPGCADLTPKTAWAERMPFYRMKVRLKKEIVTLGEPDLDPTDAGTYVEPADWNALISDPDVLVIDTRNAYEVAVGRFEGAIDPQTASFADFPAWFRDWRKSVEAQRGPEAPLKVAMYCTGGIRCEKSTAFLKAEGVEQVFHLKGGVLDYLEQIPQPESLWRGECFVFDERVSVGHGLVKGDHVLCRGCRMPVSPQDQASPLYVEGVACPACHDQRNEEQKARAAERHRQVLHCEALGVDHVGATLPTKIDLEHHHHHH | not soluble
MHERLNFPKVELHLHLDGAVRFDTLIDLSQQKGIPLAGAKTVEELKKVLVTHEPANLSKVLEAFEIFLPVIRGDLAAIERVAYELCEDQHNNGVVYFEGRYSPHLLLCNDYPEVTAAHVVAAVKKGFDRGEKQFGIKARSILCCIRGLDKKFPQLILDLATDLKQLGVVAIDVAGSAHGADEQYEPEVVAAFQEAHKRGIHRTVHAGESGGPKEVIKAIEDMYAERIGHGYRVMRDEEMYLEHFVNSKNVHLEACPYSSVMTGAVPLDWKNHPIARWAKDDVNFSVSRDDPTCFDNSMLSELTLVHKQIGLDVHQLWKAQLNAARSCFLPEDEKAELVKRVEAGEPPRP | not soluble
MGAFDRVKAQVASDSKWTSAPYKGFVAGSPSNTYIDIVSTAFEDATNTMNFARHSKYDEMYSPYLGSFRERHNYTSIAPSLCINKTNRAIEYDLAPHKAYNPRQSEWLLEKDKKYRVRGARNLIYTKSASDISLPPLTRRTFTVPTDTLRHQNQFLYWNGRALGLDYVAPFLRREDYSRHEDRRYQRIYWSPHFIDLLPSCRHSAHLMLSAY | not soluble
MVDNVLAILRMGDELADLAVDLFDGVTDPTGIAPATTRIVARAEELLSARGNGRDDIRIACGPGCMTCCTVNVSVLVPEAWTIAVWLRQHHDAGEVDRLAVRLTAAARAIRWLDDADRIRSGVTCPFLDERGWCSIHPVRPLMCRALTSTDPAQCRRALESRTSDEEVPLECNLLQKYLMEQAYRSLAAALERRGIDSAGRELVGTVARFLNEPWLADKFLVGRLITLPESLEHHHHHH | not soluble
MGSDKIHHHHHHMQSNLVMFPIVEVVRPGTQVKETNSTDYEGAEQQFLLLLATEDLDDNLDRQAAIVSDFEQAVSRAINGAYKRECQDDLAHRFLQRILYRINRLNLFWFDDLRQYTNERSLYLSSCRNQIEAAWQKWELAQVDVAAIQKLDVKQALIDRADADLDPPLSAASRYIREEMSEAGYRQLLAIGSFDGLVEGSRLSRILGGAANEVQCTLVRVLLEEYGNGRLSRKHSTFFAQMLAEFGMNTTPEAYFDLVPWEVLACANHNFLLTERRRYYLRYSGGLTYFEVAGPAAYRNYLAAAQRLGLSNAAMGYWELHIREDERHGRWMLDDVALPLAQRYPDDAWELVLGYDQEKLMGDRAAEAVVRSTRQAESIN | not soluble
MLTSEQVKAMIEGVAKCEHIEVEGDGHHFFAVIVSSEFEGKARLARHRLIKDGLKAQLESNELHALSISVAATPAEWAAKAQ | not soluble
MIGRRHPYYPYLEAALEAASLARGIHLYYLEKGFTEGTKSGPTDLVTQADREAEEAVKGLLLSRFPEAGFLGEEGGSEGGKALRFIVDPLDGTVNYAHGFPFFAVSIALEAESAIQMGVVMDTARGEVFYALRGEGAYLNGRPIRVTGRESLVGSLLATGFPYDVAKDPENLTYFERALRKGLLVRRPGAAALDLAYVAAGRLEGFWEVKLNPWDVAAGWLLVEEAGGRVTDLEGNPYRLGSRYILATNGRVHEALRRTLLGLD | soluble
MSLRDHGAPYGAHTLAYRPSGELLLVRHEGVDMWVLPGGELDRGESFQEAALRELGEESGIEATIEGLGMLGRVEFYCDGNMAWGVLPVYEAQAETTDIAVDDPDHEISEAQWFDKLPADTRDREEILQWRGQRFSGREGHHHHHH | soluble
